One block for each molecule: values may come before it.
Tests used:
Huh7 cells = assay: Activity of erythroferrone domains and subunits in Huh7 cells (qRT-PCR); type: cell-based; settings: FIG. 8A
Protocol: FIG. 6. The C1q domain is not required for erythroferrone activity: (FIG. 6A) Huh7 cells were treated for 24 h with full-length or C1q domain of human erythroferrone (10 μg/ml). (FIG. 6B) Huh7 cells were treated for 24 h with adipoferrone (construct containing N-terminal domain of adiponectin and C1q domain of erythroferrone) or C1q trimer (Tri-C1q) derived from mouse erythroferrone at 10 μg/ml. Gene expression measured by qRT-PCR. Data represents mean+standard deviation (n=3). ***p<0.001; ****p<0.0001.
FIG. 8. Erythroferrone subunits designed based on predicted patterns of furin cleavage differ in their ability to suppress hepcidin: (FIG. 8A) mono-Fc-huERFE A4 construct suppresses hepcidin expression, (FIG. 8B) Huh7 cells were treated for 24 h with human erythroferrone subunits that were designed to represent all the potential Erfe subunits that could be formed assuming activity at both in silico-predicted furin cleavage sites. (see FIG. 7A). Gene expression measured by qRT-PCR. Data represents mean+standard deviation (n=3). ***p<0.001; ****p<0.0001.
Erythroferrone is a member of the C1q/TNF-related protein (CTRP) family and comprises a structure composed of a signal peptide, an N-terminal, a collagen-like domain, and a globular C terminal domain homologous to complement protein 1q (C1q). […]

furin = furin (Homo sapiens, UniProt P09958); assay: Furin cleavage of wild-type and RARR-AAAA (A4) Erfe mutant, Coomassie staining; type: biochemical; settings: RARR site mutated to AAAA vs wild-type
furin, sequence (P09958 108-794, species assumed): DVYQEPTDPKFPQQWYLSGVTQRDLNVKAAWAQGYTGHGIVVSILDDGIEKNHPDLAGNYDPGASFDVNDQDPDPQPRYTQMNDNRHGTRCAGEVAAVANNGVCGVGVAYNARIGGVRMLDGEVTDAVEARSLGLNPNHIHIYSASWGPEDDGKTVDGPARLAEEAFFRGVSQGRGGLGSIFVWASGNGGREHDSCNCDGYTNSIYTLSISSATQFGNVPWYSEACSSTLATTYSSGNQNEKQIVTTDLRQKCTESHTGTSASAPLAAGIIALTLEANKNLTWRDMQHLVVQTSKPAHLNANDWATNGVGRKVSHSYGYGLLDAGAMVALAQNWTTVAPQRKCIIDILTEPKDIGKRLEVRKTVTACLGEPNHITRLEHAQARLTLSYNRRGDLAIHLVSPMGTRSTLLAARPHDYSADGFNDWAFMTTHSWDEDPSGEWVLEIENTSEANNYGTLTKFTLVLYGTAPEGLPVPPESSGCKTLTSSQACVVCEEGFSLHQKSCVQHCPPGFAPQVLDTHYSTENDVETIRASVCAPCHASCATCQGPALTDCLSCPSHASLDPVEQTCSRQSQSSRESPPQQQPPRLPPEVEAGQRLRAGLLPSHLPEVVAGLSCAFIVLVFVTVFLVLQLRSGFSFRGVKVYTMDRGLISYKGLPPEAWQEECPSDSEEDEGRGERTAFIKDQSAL
Description: FIG. 7. Mutation of the RARR furin cleavage site at the N-terminal of Erfe prevents cleavage by furin. (FIG. 7A) Diagrammatic structure of full length human erythroferrone and potential subunits generated after furin cleavage. (FIG. 7B) Coomassie blue staining of wild-type and an RARR-AAAA(A4) Erfe mutant, in the presence or absence of furin protease.
Sequence analysis of human erythroferrone using the ProP software predicted two furin cleavage sites: RARR at position 42 and RLRR at position 212 (FIG. 7A). The RLRR site is conserved in the mouse ortholog (position 198).

[1] = test system: ERFE suppression of hepcidin production; assay: NanoLuc assay: anti-ERFE antibody with monoFC-huErfe and BMP6; type: cell-based; settings: tripling dilutions from 500 nM, BMP6 625 pM, monoFC-huErfe 20 nM
Protocol: The was measured in-vitro using as follows: A hepcidin transcriptional fusion reporter assay (nano-luc or nano-luciferase assay) was developed to assess the effect of BMPs on hepcidin production in-vitro. A nanoluciferase reporter was inserted at the end of the coding sequence of the endogenous HAMP gene, in HepG2 hepatoma cells, creating a HAMP-nanoluciferase fusion. CRISPR-Cas9 was used to edit the cells with this knock-in reporter construct. A bovine Growth Hormone poly A was included after the nanoLuc to ensure proper mRNA processing. A Puromycin-TK expression cassette was also included 3′ of the nanoluc reporter to enrich for properly targeted clones. Clones that were homozygous for the HAMP-NanoLuc fusion were selected and tested for their response to BMPs and LDN(4-[6-[4-(1-Piperazinyl)phenyl]pyrazolo[1,5-a]pyrimidin-3-yl]quinoline dihydrochloride), a potent ALK2/3 BMP inhibitor, a schematic of the nano-luc construct is shown in FIG. 1B. The effect of representative BMPs (BMP, 2, 6, 9) on the Hamp-nanoLuc signal was assessed. Approximately 20,000 cells (cells split with trypsin/EDTA) were suspended in 200 uL of complete media (DMEM+10% serum+Na pyruvate) and were distributed into each well of 96-well plates and incubated for 24 hours at 37 C. […] Plates were read on Envision with Lum700 program following the manufacturer's instructions. […]

murine ERFE = target: T1, murine ERFE (Mus musculus, UniProt Q6PGN1); assay: HAMP and ID1 qRT-PCR in HUH7 cells with BMP 5, 6 or 7, murine ERFE and anti-ERFE antibody 15.1; type: cell-based; settings: BMP 5, 6 or 7 2 nM, murine ERFE 1 μg/ml, antibody 10 μg/ml, 6 h
T1 sequence (Q6PGN1 25-340): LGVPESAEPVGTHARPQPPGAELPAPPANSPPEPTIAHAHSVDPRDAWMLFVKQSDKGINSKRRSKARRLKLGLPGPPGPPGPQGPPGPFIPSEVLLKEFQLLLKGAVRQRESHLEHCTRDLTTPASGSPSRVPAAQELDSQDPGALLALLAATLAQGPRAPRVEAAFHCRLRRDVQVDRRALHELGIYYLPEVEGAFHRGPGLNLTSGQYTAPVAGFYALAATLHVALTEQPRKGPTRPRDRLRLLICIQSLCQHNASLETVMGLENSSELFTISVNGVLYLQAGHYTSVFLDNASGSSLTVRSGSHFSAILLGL
Protocol: HUH7 cells treated with BMP 5, 6 or 7 (2 nM), murine ERFE (1 μg/ml) and anti-ERFE antibody 15.1 (10 μg/ml), alone or in combination, for 6 h. HAMP and ID1 gene expression was measured by qRT-PCR and expressed as fold-change relative to untreated cells, FIGS. 11A and 11B.

- clipping of human erythroferrone after treatment with furin (furin): reduced the clipping
B1: monoFC-huErfe A4: human erythroferrone mono-Fc construct with RARR furin cleavage site mutated to AAAA (protein)
chain: AAGLGSPEPGAPSRSAAAAEPPPGNELPRGPGESRAGPAARPPEPTAERAHSVDPRDAWMLFVRQSDKGVNGKKRSRGKAKKLKFGLPGPPGPPGPQGPPGPIIPPEALLKEFQLLLKGAVRQRERAEPEPCTCGPAGPVAASLAPVSATAGEDDDDVVGDVLALLAAPLAPGPRAPRVEAAFLCRLRRDALVERRALHELGVYYLPDAEGAFRRGPGLNLTSGQYRAPVAGFYALAATLHVALGEPPRRGPPRPRDHLRLLICIQSRCQRNASLEAIMGLESSSELFTISVNGVLYLQMGQWTSVFLDNASGCSLTVRSGSHFSAVLLGV
- hepcidin expression (Huh7 cells): effectively suppress

- block of ERFE activity on BMPs (HAMP and ID1 expression) (murine ERFE): prevent BMP inhibition
B2: Ab 15.1: neutralising anti-ERFE antibody; heavy and light chain SEQ ID NO: 26 and 27 (antibody)
heavy: EVQLQQSGPELVKPGASVKMSCKASGYTFTDYSMHWVKQSHGKSLEWIGYINPNSGGTSYNQKFKGKATLTVNKSSSTAYMELRSLTSEDSAVYYCVPYGYDDYWGQGTTLTVSSAKTTAPSVYPLAPVCGDTTGSSVTLGCLVKGYFPEPVTLTWNSGSLSSGVHTFPAVLQSDLYTLSSSVTVTSSTWPSQSITCNVAHPASSTKVDKKIEPRGPTIKPCPPCKCPAPNLEGGPSVFIFPPKIKDVLMISLSPIVTCVVVDVSEDDPDVQISWFVNNVEVHTAQTQTHREDYNSTLRVVSALPIQHQDWMSGKAFACAVNNKDLPAPIERTISKPKGSVRAPQVYVLPPPEEEMTKKQVTLTCMVTDFMPEDIYVEWTNNGKTELNYKNTEPVLDSDGSYFMYSKLRVEKKNWVERNSYSCSVVHEGLHNHHTTKSFSRTPG
light: DVLMTQTPLSLPVSLGDQVSISCRSSQSIVHSNGNTYLEWYLQKPGQSPKLLIYKVSNRFSGVPDRFSGSGSGTDFTLRITRVAAEDLGVYYCFQGSHVPLTFGAGTKLELKRTDAAPTVSIFPPSSEQLTSGGASVVCFLNNFYPKDINVKWKIDGSERQNGVLNSWTDQDSKDSTYSMSSTLTLTKDEYERHNSYTCEATHKTSTSPIVKSFNRNEC
- inhibition of ERFE suppression of hepcidin production [1]: inhibit ERFE suppression of hepcidin production in a dose-dependent manner

From patent US20210196823A1, “Methods of Treating Metabolic Disease” (Pfizer Inc., priority 2018, published 2021)
